Target: TPO receptor (TPOR)
Assay: cell-based or functional assay

EC50 of relative cell proliferation of BaF3/MPL cells (Cell Titer-Glo, 48 h): 1.7 ng/mL
Substance: Human TPO synthetic protein (rhTPO) (from UniProt P40225 22-353) (ligand)

Source: patent EP4644412A1
